Results as given in patent publication US20250122285A1 (ANWITA BIOSCIENCES, published 2025).

Target: T1, CD122/CD132 heterodimer (human, UniProt P14784 27-239; P31785 23-262)
T1 construct: Bought from ACROBIO as 'AVT-TAG CD122/CD132 heterodimer'; also called AVT-TAG CD122/CD132 heterodimer; IL-2Rβ/γ complex
T1 sequence 1: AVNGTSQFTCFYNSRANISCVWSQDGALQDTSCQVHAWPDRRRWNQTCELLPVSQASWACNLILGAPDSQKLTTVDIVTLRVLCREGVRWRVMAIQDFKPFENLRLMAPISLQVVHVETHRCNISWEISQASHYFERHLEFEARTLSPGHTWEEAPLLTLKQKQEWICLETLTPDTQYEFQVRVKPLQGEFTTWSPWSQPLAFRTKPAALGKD
T1 sequence 2: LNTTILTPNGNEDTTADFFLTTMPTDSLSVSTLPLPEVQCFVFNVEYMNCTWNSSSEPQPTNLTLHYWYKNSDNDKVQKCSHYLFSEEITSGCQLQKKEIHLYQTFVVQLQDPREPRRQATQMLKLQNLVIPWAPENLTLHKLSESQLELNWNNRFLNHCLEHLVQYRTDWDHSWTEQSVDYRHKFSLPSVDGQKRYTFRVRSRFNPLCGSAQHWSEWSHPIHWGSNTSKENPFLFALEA
Assay: BLI (OCTET RED96), receptor on biosensor, IL-2 in solution at 10-2,000 nM, 24 C
Method: OCTET® RED96 was used to characterize the interactions of wild-type hL-2 and hhL-2 muteins with CD25, CD122, or CD122/CD132 heterodimer. AVT-TAG CD122/CD132 heterodimer was purchased from ACROBIO. The protein samples were diluted in the OCTET® kinetic buffer. […] The biosensor was then dipped into a solution containing a wild-type hL-2 and IL-2 muteins at 10 to 2,000 nM at 24° C. The association and dissociation sensorgraph was fitted by global or local fitting using the OCTET® Data Analysis HT software.

B1: IL-2-IL-15 Chimera 65 (T3A, I92A, C125S, Q126E) (ligand)
chain: APASSSTKKTQLQLEHLLLDLQMILNGIQSMEIDATTFKFYMPKKATELKHLQCLEEELKPLEEVLNLAQSKNFHLRPRDLISNINVAVLELKGSETTFMCEYADETATIVEFLNRWITFSESIISTLT
In the case of B1, the Kd is reported as 242 nM.
